Measured values published in patent publication US20160312265, “USE OF NUCLEIC ACID AGENTS FOR ULTRA-SENSITIVE DIGITAL DETECTION AND QUANTIFICATION OF TARGET MOLECULES” (Aptitude Medical Systems, Inc., published 2016).

Molecular target: TNFα (tumor necrosis factor alpha) (UniProt P01375 P01375:77-233)
Test: antibody-capture / aptamer-detection sandwich in ELISA wells, 5 nM aptamer, eluted at 95 C and counted by digital PCR; PBS, 0.05% Tween-20, 2.5 mM MgCl2, 1 mM CaCl2 wash; no numerical result in text
Conditions: tags: Shenandoah Biotechnology 100-111; chain copies: 3 (inferred)
Description: The ELISA wells (Thermo Scientific, Catalog #: 15031) were functionalized with a TNFα antibody (eBioscience, Catalog #: 14-7349-85) at 5 μg/ml in PBS overnight at 4° C. Right before use, the ELISA wells were blocked with 300 μL AptaBuffer (PBS+0.05% Tween-20+2.5 mM MgCl₂+1 mM CaCl₂+1% BSA+0.5 mg/mL Dextran Sulfate+0.1 mg/mL Salmon Sperm DNA) with gentle shaking at ˜500 RPM for at least 30 minutes.
Next, test samples (50 μL) containing the protein of interest (TNFα, Shenandoah Biotechnology, Catalog #: 100-111) were added to the washed ELISA wells and incubated for 1 hour with gentle shaking After the target-capture incubation, the ELISA wells were washed once with PBSMCT (PBS+0.05% Tween-20+2.5 mM MgCl₂+1 mM CaCl₂) and 5 nM of the detection TNFα aptamer was added to the wells and incubated for 30 minutes with gentle shaking. The ELISA plate was then washed 4 times with 300 μl of PBS-MCT after the incubation with the detection aptamer. In an embodiment, the sequence of TNFα aptamer is 5′-[…] […]-3′.
For the elution step, 100 μL of PCR grade water was added to each ELISA well. After heating the plate at 95° C. for 10 minutes, we transfer the 100 μL of eluent containing the detection aptamers into a new tube. The eluents are diluted 10 fold before they are measured by the QuantStudio® 3D Digital PCR System from Life Technologies.

Sequence of TNFα (tumor necrosis factor alpha) (P01375 77-233, one chain of several): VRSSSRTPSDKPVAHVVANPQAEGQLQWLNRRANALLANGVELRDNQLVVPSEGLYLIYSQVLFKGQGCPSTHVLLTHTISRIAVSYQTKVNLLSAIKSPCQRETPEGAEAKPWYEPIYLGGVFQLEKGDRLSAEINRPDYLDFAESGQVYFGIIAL

B1: TNFα detection aptamer (ssDNA)
DNA: ATCCAGAGTGACGCAGCATGCTTAAGGGGGGGGCGGGTTAAGGGAGTGGGGAGGGAGCTGGTGTGGACACGGTGGCTTAGT
binding result: binds
